Data taken from patent US20180196058A1.

Biological target: Recombinant human IFN-gamma (eBioscience) (human) (UniProt P01579)
Experiment: sandwich on beads, LC MS/MS of released iCOREs; IFN-gamma iCORE peak against the peak of the iCORE on the anti-TNF-alpha detection antibody

Sequence of Recombinant human IFN-gamma (eBioscience) (human) (P01579 24-166 limits assumed): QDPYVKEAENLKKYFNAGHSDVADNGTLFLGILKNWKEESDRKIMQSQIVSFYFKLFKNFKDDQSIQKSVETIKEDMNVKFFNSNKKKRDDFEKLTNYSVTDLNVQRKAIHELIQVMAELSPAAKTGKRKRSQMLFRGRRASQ

- signal to noise: 10
Substance: iCORE-labeled detection antibody against human IFN-gamma, clone 4S.B3 (eBioscience)
